Consider five molecules from article PMC5190049, “Immunogenicity of mammary tumor cells can be induced by shikonin via direct binding-interference with hnRNPA1” (Oncotarget, 2016).

Data set [1] has as its target T1, hnRNPA1 (UP1) (Homo sapiens, UniProt P09651).
T1 construct: UP1, first 196 amino acids (N-terminal fragment with both RRMs); pET-42a, GST-His tag cut by Factor Xa; E. coli BL21(DE3)
The experiment in a line: isothermal titration calorimetry. It is filed as binding. A general note: Isothermal titration calorimetry measures the heat released or taken up as one component is titrated into another.

In data set [2] the target is T2, hnRNPA1 N-terminal fragment (UP1) (human, UniProt P09651 1-196). Kind of data set: ITC; N = 1.17 +/- 0.128; pH 7.0; 3 uM UP1, 60 uM RNA; Kd not given in text; EMSA: 20 mM HEPES, 50 mM KCl, 1 mM EDTA, 5 mM MgCl2, 0.1 mg/ml tRNA, 0.1 mg/ml BSA, 5 mM DTT, 10% glycerol, room temperature; ITC: 300 mM NaCl, 50 mM Tris-HCl. To be noted: protein: recombinant; tags: GST-His fusion tag removed with Factor Xa.

Data set [3] addresses T2, hnRNPA1 N-terminal fragment (UP1). The experiment in a line: EMSA; shikonin 0-4 ug/test; EMSA: 20 mM HEPES, 50 mM KCl, 1 mM EDTA, 5 mM MgCl2, 0.1 mg/ml tRNA, 0.1 mg/ml BSA, 5 mM DTT, 10% glycerol, room temperature; ITC: 300 mM NaCl, 50 mM Tris-HCl. The following applies: protein: recombinant; tags: GST-His fusion tag removed with Factor Xa; label: 5'-biotin. On the technique in general: A gel shift assay detects complexes by their altered migration in electrophoresis.

For data set [4] the target is unchanged. Kind of data set: EMSA; without shikonin; shikonin 0-4 ug/test disrupts binding; EMSA: 20 mM HEPES, 50 mM KCl, 1 mM EDTA, 5 mM MgCl2, 0.1 mg/ml tRNA, 0.1 mg/ml BSA, 5 mM DTT, 10% glycerol, room temperature; ITC: 300 mM NaCl, 50 mM Tris-HCl. To be noted: protein: recombinant; tags: GST-His fusion tag removed with Factor Xa; label: 5'-biotin.
Data set [5] shares this target. The experiment in a line: EMSA; without shikonin; shikonin 0-4 ug/test disrupts binding dose-dependently; EMSA: 20 mM HEPES, 50 mM KCl, 1 mM EDTA, 5 mM MgCl2, 0.1 mg/ml tRNA, 0.1 mg/ml BSA, 5 mM DTT, 10% glycerol, room temperature; ITC: 300 mM NaCl, 50 mM Tris-HCl. To be noted: protein: recombinant; tags: GST-His fusion tag removed with Factor Xa; label: 5'-biotin.

T2 sequence (P09651 1-196): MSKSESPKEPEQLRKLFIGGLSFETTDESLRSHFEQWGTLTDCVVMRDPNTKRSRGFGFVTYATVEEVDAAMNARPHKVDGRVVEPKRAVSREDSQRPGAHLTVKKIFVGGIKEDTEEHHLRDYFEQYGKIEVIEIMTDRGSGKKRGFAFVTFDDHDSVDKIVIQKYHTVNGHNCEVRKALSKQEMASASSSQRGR
T1 sequence (P09651 1-196): as above

On to `CC(C)=CC[C@@H](O)C1=CC(=O)c2c(O)ccc(O)c2C1=O` [shikonin], for which, in data set [1], the Kd (usually the equilibrium constant for the complex coming apart) came out at 71.2 µM.

AUUUAGGGAUUUAGGGAAUG (ssRNA) [WT RNA (ITC)]: in data set [2], the binding result is “binds”.

Take AUUUCGGGAUUUCGGGAAUG (ssRNA) [M3 RNA (called M2 in Figure 2c legend)]: in data set [3], the binding result is recorded as “no binding”.

On to AUUUAGGGAUUUAGGGAAUG (ssRNA) [WT RNA], for which the binding result in data set [4] is “binds”.

TTAGGGTTAGCG (ssDNA) [TR2]: the binding result in data set [5] is on record as “binds”.
